B1: ATP-dependent RNA helicase DDX19B (Homo sapiens), Q9UMR2-1 (parent)
chain: MATDSWALAVDEQEAAAESLSNLHLKEEKIKPDTNGAVVKTNANAEKTDEEEKEDRAAQSLLNKLIRSNLVDNTNQVEVLQRDPNSPLYSVKSFEELRLKPQLLQGVYAMGFNRPSKIQENALPLMLAEPPQNLIAQSQSGTGKTAAFVLAMLSQVEPANKYPQCLCLSPTYELALQTGKVIEQMGKFYPELKLAYAVRGNKLERGQKISEQIVIGTPGTVLDWCSKLKFIDPKKIKVFVLDEADVMIATQGHQDQSIRIQRMLPRNCQMLLFSATFEDSVWKFAQKVVPDPNVIKLKREEETLDTIKQYYVLCSSRDEKFQALCNLYGAITIAQAMIFCHTRKTASWLAAELSKEGHQVALLSGEMMVEQRAAVIERFREGKEKVLVTTNVCARGIDVEQVSVVINFDLPVDKDGNPDNETYLHRIGRTGRFGKRGLAVNMVDSKHSMNILNRIQEHFNKKIERLDTDDLDEIEKIAN

The assay covers variants of B1. To be noted: with NUP214, P35658-1.
NUP214, P35658-1, sequence (P35658 whole entry): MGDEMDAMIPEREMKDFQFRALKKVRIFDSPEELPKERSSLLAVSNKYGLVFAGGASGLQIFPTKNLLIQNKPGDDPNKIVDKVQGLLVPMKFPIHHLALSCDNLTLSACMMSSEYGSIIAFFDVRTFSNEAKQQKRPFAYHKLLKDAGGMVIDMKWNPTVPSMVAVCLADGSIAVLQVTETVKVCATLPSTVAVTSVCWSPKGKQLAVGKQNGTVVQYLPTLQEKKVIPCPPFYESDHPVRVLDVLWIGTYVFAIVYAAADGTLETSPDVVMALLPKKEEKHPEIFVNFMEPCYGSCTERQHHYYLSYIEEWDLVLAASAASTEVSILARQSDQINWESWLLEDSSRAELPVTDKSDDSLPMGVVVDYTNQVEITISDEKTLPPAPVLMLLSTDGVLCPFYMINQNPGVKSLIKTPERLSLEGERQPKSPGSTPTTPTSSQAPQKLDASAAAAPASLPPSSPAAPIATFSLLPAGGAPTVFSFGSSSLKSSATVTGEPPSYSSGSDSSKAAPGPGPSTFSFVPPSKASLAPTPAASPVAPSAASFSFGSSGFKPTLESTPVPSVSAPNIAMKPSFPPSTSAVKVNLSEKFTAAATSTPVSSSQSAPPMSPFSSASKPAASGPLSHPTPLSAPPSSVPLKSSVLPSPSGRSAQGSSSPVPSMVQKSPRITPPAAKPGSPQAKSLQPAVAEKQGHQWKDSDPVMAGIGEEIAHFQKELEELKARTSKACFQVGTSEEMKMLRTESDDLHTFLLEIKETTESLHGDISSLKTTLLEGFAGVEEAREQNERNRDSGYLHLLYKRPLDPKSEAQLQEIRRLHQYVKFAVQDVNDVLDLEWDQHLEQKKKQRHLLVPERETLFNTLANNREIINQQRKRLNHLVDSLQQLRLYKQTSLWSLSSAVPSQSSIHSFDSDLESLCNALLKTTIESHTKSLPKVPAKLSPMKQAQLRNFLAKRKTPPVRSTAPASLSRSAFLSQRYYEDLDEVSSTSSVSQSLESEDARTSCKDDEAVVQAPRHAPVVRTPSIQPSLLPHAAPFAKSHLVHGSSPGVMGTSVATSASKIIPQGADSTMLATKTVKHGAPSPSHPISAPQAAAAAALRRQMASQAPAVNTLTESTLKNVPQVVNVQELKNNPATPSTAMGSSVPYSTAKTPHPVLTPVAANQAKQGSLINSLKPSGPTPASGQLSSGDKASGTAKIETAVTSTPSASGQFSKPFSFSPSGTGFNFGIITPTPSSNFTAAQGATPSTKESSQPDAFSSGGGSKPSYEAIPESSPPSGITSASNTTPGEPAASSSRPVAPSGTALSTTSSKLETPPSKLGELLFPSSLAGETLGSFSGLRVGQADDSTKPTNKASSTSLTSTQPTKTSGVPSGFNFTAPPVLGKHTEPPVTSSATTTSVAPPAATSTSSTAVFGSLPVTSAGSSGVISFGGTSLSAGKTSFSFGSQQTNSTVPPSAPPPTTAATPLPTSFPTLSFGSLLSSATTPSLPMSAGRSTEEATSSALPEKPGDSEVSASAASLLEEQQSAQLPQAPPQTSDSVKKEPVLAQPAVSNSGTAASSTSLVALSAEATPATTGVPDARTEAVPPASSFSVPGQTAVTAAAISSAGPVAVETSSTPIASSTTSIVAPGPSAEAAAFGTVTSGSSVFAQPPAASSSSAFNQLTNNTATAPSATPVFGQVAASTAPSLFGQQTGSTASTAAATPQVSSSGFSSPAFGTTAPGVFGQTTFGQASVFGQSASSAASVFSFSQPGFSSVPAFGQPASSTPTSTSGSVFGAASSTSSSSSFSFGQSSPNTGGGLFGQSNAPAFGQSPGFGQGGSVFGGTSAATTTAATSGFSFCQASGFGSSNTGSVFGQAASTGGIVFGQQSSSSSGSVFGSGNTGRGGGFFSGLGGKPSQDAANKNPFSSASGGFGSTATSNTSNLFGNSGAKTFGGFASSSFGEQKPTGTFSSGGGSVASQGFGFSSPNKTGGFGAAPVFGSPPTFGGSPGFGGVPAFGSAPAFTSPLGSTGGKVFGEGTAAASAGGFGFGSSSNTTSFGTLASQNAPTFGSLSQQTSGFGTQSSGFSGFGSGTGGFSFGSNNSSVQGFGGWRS
As to I258A, the “effect of a mutation on the interaction” value is given as “disrupting interaction”. With D223R the entry was “disrupting interaction”; with R259D, “disrupting interaction”. Consider R262A, for which the “effect of a mutation on the interaction” value is “disrupting interaction”.

These data come from IntAct's records for PubMed 19219046.
